# T1: CD39 ATPase activity of melanoma cells (SK-MEL-5) (Homo sapiens, UniProt P49961)
# T1 construct: SK-MEL-5 and SK-MEL-28 cell lines display membranous expression of CD39; endogenous in cells; host or cells: SK-MEL-5 melanoma cells
# T1 sequence (P49961 1-510): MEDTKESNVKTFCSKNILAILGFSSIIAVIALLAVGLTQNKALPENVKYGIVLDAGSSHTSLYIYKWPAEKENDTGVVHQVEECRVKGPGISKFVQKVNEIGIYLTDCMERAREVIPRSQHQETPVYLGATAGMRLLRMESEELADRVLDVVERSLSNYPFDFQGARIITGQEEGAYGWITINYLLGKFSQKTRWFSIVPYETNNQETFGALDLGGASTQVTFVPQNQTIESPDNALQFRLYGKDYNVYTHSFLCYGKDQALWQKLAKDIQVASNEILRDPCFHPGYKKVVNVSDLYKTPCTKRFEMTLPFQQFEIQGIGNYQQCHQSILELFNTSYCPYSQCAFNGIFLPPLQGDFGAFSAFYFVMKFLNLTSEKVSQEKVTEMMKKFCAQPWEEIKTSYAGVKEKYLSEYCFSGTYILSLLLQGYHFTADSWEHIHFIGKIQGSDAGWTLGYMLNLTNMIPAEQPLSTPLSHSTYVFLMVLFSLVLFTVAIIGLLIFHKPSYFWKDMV
# T2: CD39 ATPase activity of lymphoma cells (Ramos) (Homo sapiens, UniProt P49961)
# T2 construct: BL41, B104 and Ramos express CD39 at their cell surface; endogenous in cells; host or cells: Ramos Burkitt lymphoma cells
# T2 sequence (P49961 1-510): T1 sequence (P49961 1-510)
# B1: BA54g: CD39 monoclonal antibody from hybridoma CNCM I-4171; VH SEQ ID NO: 11, VL SEQ ID NO: 15 (antibody, listed as Mus musculus, V domains shown)
# VH: DVQLVESGGGLVQPGGSRKLSCAASGFTFSSFGMHWVRQAPEKGLEWVAYISSGSSIIYYADTVKGRFTISRDNPKNTLFLQMTSLGSEDTAMYYCARWSTTVVATDYWGQGTTLTVS
# VL: NIVMTQSPKSMSMSVGERVTLTCKASENVVTYVSWYQQKPEQSPKLLIYGASNRYTGVPDRFTGSGSATDFTLTISSVQAEDLADYHCGQGYSYPYTFGGGTKLEIKR
# B2: BY40: murine CD39 antibody from hybridoma CNCM I-3889; VH SEQ ID NO: 1, VL SEQ ID NO: 5 (antibody, listed as Mus musculus)
# VH: TRVKKPRETVKISCKASGYTFTHYGMNWVKQAPGKGLKWMGWINTYTGEPTYADDFKGRFAFSLEASVSTAYLQINNLKNEDTATYFCARRRYEGNYVFYYFDYWGQGTTLTVSSAKTTPPSVYPLAPGSAAQTNSMVTLGCLVKGYFPEQVTVTWNSGSLSSGVHTFPAVLQSDLYTLSSSVTVPS
# light: DIQMTQSPASLSASVGETVTITCRASENIYSYFSWYQQKQGKSPQLLVYTAKTLAEGVPSRFSGSGSGTQFSLKINSLQPEDFGSYYCQHHYVTPYTFGGGTKLEIKRADAAPTVSIFPPSSEQLTSGGASVVCFLNNFYPKDINVKWKIDGSERQNGVLNSWTD
# Legend:
# [1] = test system: CD4 and CD8 T cells (PBMC) cultured with CD39-expressing SK-MEL-5 melanoma cells; experiment: Inhibition of melanoma cell-mediated suppression: proliferation of CFSE-labelled T cells co-cultured with irradiated SK-MEL-5; format: cell-based, human; settings: CFSE-labelled PBMC + irradiated SK-MEL-5, 5 days, BY40 5 μg/mL, POM-1 100 or 250 μM, flow cytometry; for CD4 T cell proliferation: FIG. 4A; for CD8 T cell proliferation: FIG. 4B
# Procedure: (§1) FIG. 4: CD39 antibody (BY40) restores T cell responses against melanoma cells. 5×10^4 CFSE-labelled PBMC were cultured in the presence of 5×10^3 irradiated (100 Gy) SK-MEL-5 (NT). POM-1 (100 or 250 μM), BY40 or control isotype antibody D6212 (5 μg/mL) were added at the beginning of the culture and after 2 days of culture. After 5 days of culture, proliferation of CFSE-labelled CD4 (A) and CD8 (B) T cells was analysed by flow cytometry. Experiment was performed in duplicate and results are representative of 2 independent experiments.
# as §1, with “5×10^4” for “FIG. 4: CD39 antibody (BY40) restores T cell responses against melanoma cells. 5×10^4”
# [2] = molecular target: T1, CD39 ATPase activity of melanoma cells (SK-MEL-5); experiment: Inhibition of melanoma-CD39 enzymatic (ATPase) activity, phosphate release measured with Malachite green; format: cell-based; settings: SK-MEL-5 cells cultured with mAb for 16 h, then 100 μM ATP for 15 min; FIG. 3
# Procedure: (§2) FIG. 3: CD39 (BA54g) antibody inhibits CD39 ATPase activity of melanoma cells. 1×10^5 melanoma cells (SK-MEL-5) were cultured in complete RPMI medium alone or in presence of BA54g mAb for 16 h. Cells were then washed three times in phosphate free buffer (10 mM glucose, 20 mM Hepes, 5 mM KCl, 120 mM NaCl, 2 mM CaCl2) and resuspended in the same buffer supplemented with 100 μM ATP for 15 min. Phosphate concentration in supernatants was measured after addition of Malachite green/polyvinylalcohol/ammonium mobylate solution for 20 min by a spectrophotometer at 620 nm and compared against a standard curve. Experiment was performed in triplicate.
# as §2, with “Protocol:” for “FIG. 3: CD39 (BA54g) antibody inhibits CD39 ATPase activity of melanoma cells.”, “min” for “min.”
# [3] = molecular target: T2, CD39 ATPase activity of lymphoma cells (Ramos); experiment: Inhibition of lymphoma-CD39 enzymatic (ATPase) activity, phosphate release measured with Malachite green; format: cell-based; settings: Ramos cells cultured with increasing doses of mAb for 16 h, then 100 μM ATP for 15 min; FIG. 7
# Procedure: (§3) FIG. 7: CD39 antibodies inhibit CD39 ATPase activity of lymphoma cells. 1×10^5 lymphoma cells (Ramos) were cultured in complete RPMI medium alone or in presence of BA54g, BY12 or BY40 mAbs, at the indicated concentrations, for 16 h. Cells were then washed three times in phosphate free buffer (10 mM glucose, 20 mM Hepes, 5 mM KCl, 120 mM NaCl, 2 mM CaCl2) and resuspended in the same buffer supplemented with 100 μM ATP for 15 min. Phosphate concentration in supernatants was measured after addition of Malachite green/polyvinylalcohol /ammonium mobylate solution for 20 min by a spectrophotometer at 620 nm and compared against a standard curve. Results are the mean of two independent experiments.
# as §3, with “1×10^5” for “FIG. 7: CD39 antibodies inhibit CD39 ATPase activity of lymphoma cells. 1×10^5”, “KC1,” for “KCl,”
Molecule,CD4 T cell proliferation [1],CD8 T cell proliferation [1],CD39 enzymatic activity of melanoma cells [2],CD39 activity of lymphoma cells [3]
"[Na+].[Na+].[Na+].[Na+].[Na+].[Na+].[O]=[W](=[O])([O-])[O-].[O]=[W](=[O])([O-])[O-].[O]=[W](=[O])([O-])[O-].[O]=[W](=[O])=[O].[O]=[W](=[O])=[O].[O]=[W](=[O])=[O].[O]=[W](=[O])=[O].[O]=[W](=[O])=[O].[O]=[W](=[O])=[O].[O]=[W](=[O])=[O].[O]=[W](=[O])=[O].[O]=[W](=[O])=[O] [POM-1, sodium metatungstate, reference compound]",increased,increased,,
B1,,,inhibits CD39 enzymatic activity in a dose dependant manner,inhibited CD39 activity in a dose dependant manner
B2,increased,increased,,inhibited CD39 activity in a dose dependant manner
